Among the data in a protein production outcome set (Wang et al. 2014) are protein production values, retold here.

A short description of the data set: label from the status in PepcDB records.

For the sequence “MMEERAAAAVASAASSCRPLGSGTAPNPTAAAPASSPAPGPGPVGKGGGGGGSPGPTAGPEPLSLPGILHFIQHEWARFEAEKARWEAERAELQAQVAFLQGERKGQENLKTDLVRRIKMLEYALKQERAKYHKLKFGTDLNQGEKKTDLSEQVSNGPVESVTLENSPLVWKEGRQLLRQYLEEVGYTDTILDMRSKRVRSLLGRSLELNGAGEPVEGAPRASPGPGGLSGGESLLVKQIEEQIKRNAAGKDGKERLGGSVLEQIPFLQNCEDEDSDEDDELDSVQHKKQRVRLPSKALVPEMEDEDEEDDSEDAINEFDFLGSGEDGEGSPDPRRCTSEGNPHELESRRVKLQGILADLRDVDGLPPKVTVPPPGTPQPRPHEGSFGFSSDVFIMDTIGGGEVSLGDLADLTVTNDNDLSCDLSDSKDAFKKTWNPKFTLRSHYDGIRSLAFHHSQSALLTASEDGTLKLWNLQKAVTAKKNAALDVEPIHAFRAHRGPVLAVTMGSNSEYCYSGGADARIHSWKIPDLNMDPYDGYDPSVLSHVLEGHGDAVWGLAFSPTSQRLASCSADGTVRIWDPSSSGPSCLCTFPMDGEHGIPTSVAFTSTEPAHVVASFRSGDTVLYDLEAGSALLTLESRGSSGPAQINQVVSHPSQPLTITAHDDRGIRFLDNRTGKSVHSMVAHLDAVTCLAVDPNGVFLMSGSHDCSLRLWSLDNKTCVQEITAHRKKHEEAIHAVACHPSKALIASAGADALAKVFV”, the protein production result is given as “failed”.

Turning to “MMEKIMEYLQLSDEVVDDGEAPRVEEFLGEGKSFYENFSLRGIRVNRVEPGFISCSFKVPLRLTDRDKNLANGAIANLVDEVGGALVHGEGLPMSVSVDMSIAFLSKAKLGEELEITSRLLGERGGYKGTIVVVRNKMTGEIIAEGRHSMFGRQASKL”, the protein production entry is given as “failed”.

“MMELDLPATIKRDMKFRYLLIIVPLLFPAHIFGQELPDLGDVSQASVTPHQERQIGIQIMREIRADSSYLDDPEIADYLTRLGNRLIAASGQTNPDNPFEFFAINDSSINAFALPGAFVGFHSGLITAAQNESELAGVMAHEIAHVTQKHLARMISGTSYLGLLGSIAALAIAILASRSNPNAGQAVLATAQASAIQSQLNFTRKHEKEADRVGFNMLIKAGFDPHGMSSFFERMQHASRYYENGMPSYLMTHPVTHERIADIQNRTQELGYRQVPDSLEFHLVRAKIRASRGNPASVINEFKARLQDKRYINEIAEQYGLIQALLRARQFKQADEELNTLYRTIQSDSSAQSLKNHRLGKSIQVDGDYLQSAAMIETLAARVKFASGQTDDAFRLYQSALQSFPHYRALVYGYADALLQHKDAQAALDFINGQSQFIHDDIRLYRLTAQCHAALGNALLQHQAEAEALIREGNLRAAIEQLQIALRHKHDNFYQLSSVEARLRQIKEFVAAEKEKK”: the protein production result is reported as “failed”.

“MMELHDLAEDLPSKWTEIMAVAEKAFRAFAELDAVKRELAESENAQ”: the protein production entry was “not failed”.

Take “MMEVGILPVHVLYVFFIGAIILFMLLRKDTTFISLFGIFIISLWASHSLSASVSSLFHSFIYAAGELLPTIFIICFIVSMSDLLTKTGINEAMISPFASLVRGPVTAYWLIGGLMFAISLFFWPSPGVALIGAVLLPAAARAGLTPLAAAMAMNLFGHGFALSGDFVIQAAPKLTADAAGIPVGDVVSASIPLVLIMGVTTTTAAFIMIQRERKKQEHPTSFSPVLSGEQDNSLYLPKRLRSILAFLIPLAFLADIACMLLFNLQGNDATALIGGSAICILFTVHFFVYKHKGLEKITGYFIDGFKFGFKVFGPVIPIAAFFYLGDSGYESILGTSLPKGSHGIVNDLGIALSHMMPMSKELAATALTAAGAITGLDGSGFSGISLAGSIAKLFSSALHADPAILTALGQISAIWVGGGTLVPWALIPAAAICKVDPFELARKNFIPVAIGLLVTTLAAVMML”: the protein production result is “failed”.

“MMFFQVHPHLTDLVIRTLQATWQQFPWLGQEDIALTLLVYPPPIPVNTGGALTAAEFWQYLIPGAHYRGDVPMYPASVVKLFYLVACHEWLHSGMLQPDAELERAMRDMIVDSSNDATSLVVDMLTGTTSGPVLPPEPFRTWQYQRNIVNRYFQSLGWPELTQINVNQKTWCEGPYGREQEFVGRDRQNANRLTTNATAKLIHSIVGGVAVSASASQGMMELMERSLDPELLAQDPENQVQGFLGEGLPPGAKLWSKAGLTSWVRHDAAYIELPDRCPYTLVVFMENSTASKNTEVLPFISRQIASGIPTLEGAGVL”: the protein production entry is given as “failed”.

For “MMGSVELNLRETELCLGLPGGDTVAPVTGNKRGFSETVDLKLNLNNEPANKEGSTTHDVVTFDSKEKSACPKDPAKPPAKAQVVGWPPVRSYRKNVMVSCQKSSGGPEAAAFVKVSMDGAPYLRKIDLRMYKSYDELSNALSNMFSSFTMGKHGGEEGMIDFMNERKLMDLVNSWDYVPSYEDKDGDWMLVGDVPWPMFVDTCKRLRLMKGSDAIGLAPRAMEKCKSRA”, the protein production entry is reported as “failed”.

In the case of “MMHHALHIKNGIVIDPKNGVKAEKMDIFVKNGKIVEESEVKGEDVKVIDANNKLVVAGGVDMHAHIAGSKINTGRTMRPEEMRVVRNIAGKFRAAVGRVLEHHHHHH”, the protein production entry was “not failed”.

For “MMHSTVQHGGNKSGKSNVWANTNLAKTVAAVDEFKFGFPSGGLTTVSNKWWGRAEKGGREDGGGENTENGHVAACDETQNSLVAIRKRIAEEGREAVELGLHQGFGSKRPGKRDQALLFQIFNSAMPKDWVTPDSS”, the protein production result is reported as “failed”.

Regarding “MMIDPELRPAFLPAGKLRAAINLGNPILAGTDAAGQAVGVSVDLAREFARRLNAGIELRVFDTAGQSVDAVTREEADIGFFAIDPARGAGIAFTGPYVLIEGAYLVRDDSPLQANEDVDRAGKRVTVGKGSAYDLHLTRALQHAEIVRAASSQAVVDTFLARRLDVAAGVKQQLQADARRVGGVRLLPGRFMVIRQAMGLPKARGDAAAACLDAFVESMKGNGFVAQALARHGIQGASVAPPGRDG”, the protein production result is reported as “failed”.

Consider “MMIDPELRPAFLPAGKLRAAINLGNPILAGTDAAGQAVGVSVDLAREFARRLNAGIELRVFDTAGQSVDAVTREEADIGFFAIDPARGAGIAFTGPYVLIEGAYLVRDDSPLQANEDVDRAGKRVTVGKGSAYDLHLTRALQHAEIVRAASSQAVVDTFLARRLDVAAGVKQQLQADARRVGGVRLLPGRFMVIRQAMGLPKARGDAAAACLDAFVESMKGNGFVAQALARHGLEHHHHHH”, for which the protein production entry was “failed”.

In the case of “MMIIGINGSPRKNGNTIEMLKSALDGAKAQGAETELINLYDYNYKGCVSCFSCKLKGGRSYGKCALKDDLKPILEKIEKADAFILASPIYFGMVTGEMRSFMERLLFQYLVYDKDHSSLFNRKIKTGFIYTMNVPETYLDSVGYNKLFESNEATLKRIFGASEYILSTDTYQFDDYSKYEASMFDVEAKKKRREEVFPEDCKRAYEMGASFVKLEHHHHHH”, the protein production entry was “failed”.

“MMINMNRKITTYQWWIATLAIVSIFLIILDFAAVIDINIPTSKWFWINDGIVVYFAINYFYHLSKSNDKKTFFKNHIYDLLIIIPIGMLFVVLNAFNLSSLVSYLRLLRLIRLAGLMGKLRQIFHTNGLWYVVFFTITFLLVGAEAFAISEHVSLDTAFWWVLSTASTVGYDGIFGKTIPPHSIVGKFVTLVMMLLGIGIVGMLTSSITSYLVRRTNGANTLETHDNIELILKKLDDIEQQNKELTYQNKKLQAEIQTLKGEKNPLMSYIR”: the protein production result is “failed”.

Take “MMISDLPEDMVEEILSRVSIISLGALRWNDLSKARVICKAEARQQFAGFMIKGSKEVSNTRLVVWNPYLGKIWSIQHRSAYHSENRYTLGYDNNRKPQNLEEQLAVLLHNWGAFAMEIWVTTNIEPNAKKHAVIFDSSLSCGSVACIIGETGNLRTVDLGVAAVPYRQLPVCSYAPSLEQINQGQELPLIGLTQIFMEQHKYWVSTFLDNLITKYG”: the protein production entry is “failed”.

“MMIVYKGEKMQFIRVNTLKINPEVLKKRLENKGVVLEKTFLDYAFEVKKSPFSIGSTPEYLFGYYMPQSISSMIPPIVLNPREDDFILDMCAAPGGKTTHLAQLMKNKGTIVAVEISKTRTKALKSNINRMGVLNTIIINADMRKYKDYLLKNEIFFDKILLDAPCSGNIIKDKNRNVSEEDIKYCSLRQKELIDIGIDLLKKDGELVYSTCSMEVEENEEVIKYILQKRNDVELIIIKANEFKGINIKEGYIKGTLRVFPPNEPFFIAKLRKI”: the protein production entry is “not failed”.

As for “MMKEFTPAPDSASIVSVTDRVKPVALGMGVTSVHFLGDRAAFVGGEENVAFVDSQGEITTVAVHGGGILSTASDGKRLVMGGDDGKVVSLDAKGEVTLLATDPKRRWIDAVALHADGAFAWSAGKTATVKSGKTEEKSLEVPSTVGGLAFAPKGLRLAIAHYNGATLWFPNMAASAEFLPWAGSHHAVTFSPDNKFLVTAMHEPALHGWRLADNRHMRMTGYPGRVRSMSWSAGGKALATSGADTVILWPFGSKDGPMGKEPAMLAPLQARVSVVACHPKNDILAAGYSDGTVLMVRLEDGAEILVRRNGTPPVAALAWNAKGTLLAFADENGDGGLLELLEHHHHHH”, the protein production result is reported as “not failed”.

Consider “MMKIIAFVGMPASGKSEASRIAAEMGIPVIIMGDVIRKEVLKRGLEPNDSNTGMVATDLRKHEGMGAVARRCISQIRETGSELVVVDGVRGIAEVECFRKEFGKGFILISIYAPIEVRFSRVQKRGRSDDMNSIEGLRHRDERELSWGMGEAIDASNVEIENNFTLETFRKDVRDVLSNYLEADLEK”, for which the protein production entry is “not failed”.

For the sequence “MMKKLFLDTHSASGEIKLTDGLLYWFPQFLTPIQADQAFQQMLTHLDWQQKSIRLFGKSVLQPRLIAWYGEKGYRYSGLSLSAQPFPPPLLTLKTQCEQAAQAPFNSVLANLYRDGQDSMGWHQDNEPELGSNPVIASLSLGESRRFLLRHHKDHALQVECELNHGDLLIMAGNTQHFWQHAIPKTRQTKQTRINLTFRNILLEHHHHHH”, the protein production result is “not failed”.

As for “MMKKTAAIISACMLTFALSACSGSNYVMHTNDGRTIVSDGKPQTDNDIGMISYKDANGNKQQINRTDVKEMVELEQLEHHHHHH”, the protein production entry is on record as “failed”.

Consider “MMKLKKVLVLGGTRFFGKHLVEALLKDGHDVTIATRGITEDSFGSRVKRLIVDREDEKQLAERLEDKSYDIVYDNLCYSSNAATIICEVLRGKTRKYVMTSSMAVYDPAINLSEEDFNPYEYTIAYGGRNDFNYGEGKRVAEAVVFQQATFPVVAVRFPVVIGENDYTKRLQFYVEHIVREEPVAVNHLDGELSFIHEEEAGGFLAWCGMEDIEGPINACSNGVVSSREIIHFIEENTGIKPLVQEVGDHVAPYNEVTNCTLHNGKANELGFPFRELKIEIEKVLRYYIHATK”, for which the protein production entry is “failed”.

“MMKLLSFDEACQWFDSLPAHKRIATLSPYYVLLDALRDTRLLATYIGFRQGDVFWMHSVHCSAAMAGEVIDLQSPYGYGGPISNCDDPVFLNMVWDLYVEFCARQGWLAEFVRFHPLGGVSSSYGGTIVVDRLTVAIDLTGPNIRSIYSTRCRTAVRKAINNGLNVRVGSERELREIFPHFYRDGMRAIAADKFYLFNDLYFSGFSTWKCATLLICHCDDDWLSAGIFLKDGNVMEYHLSATTPAGRNLGATNLLLDAAAHLGQEQGCSFLYLGGGTDSEKNNPLLFFKSGFSAATYPFLIGFTAFNQDKYQALREKFISDHKPTDRFLFYR”: the protein production result is given as “failed”.

Consider “MMKLMFASDIHGSLPATERVLELFAQSGAQWLVILGDVLNHGPRNALPEGYAPAKVAERLNEVAHKVIAVRGNCDSEVDQMLLHFPITAPWQQVLLEKQRLFLTHGHLFGPENLPALNQNDVLVYGHTHLPVAEQRGEIFHFNPGSVSIPKGGNPASYGMLDNDVLSVIALNDQSIIAQVAINP”, for which the protein production entry is “not failed”.

For “MMKMMTRVLSSPSSHVSSLKYSPRRVIRASRDHLRAETLKSHQLPSGSSSTSLCSCGRKHFLEAASPTMPFLPICSPNASRSKDVSETFHPQRPDWYKELFAWFLSTGMRSYEAEVSLCDLNASFYDPFLENDRSFSCFMFVLFGKIAEYKRKLFEKLAGKAETVLEIGVGTGPNLKYFAGNENVCVFGMDPNHKMEKYACESAREAGMKPENFRFMHGVSKLLCFDL”, the protein production result is on record as “failed”.
